The target in test [1] is BbhV (GH84 β-N-acetylglucosaminidase of Bifidobacterium bifidum JCM 1254), residues 35-1111, C-terminal His6 (Bifidobacterium bifidum JCM 1254). As to the kind of experiment: SEC; Superdex 200 Increase 10/300 GL; 10 mM Tris-HCl pH 8.0, 150 mM NaCl; native mass estimated against thyroglobulin, ferritin, aldolase and conalbumin standards.
In test [2] the target is T1, BbhV (Bifidobacterium bifidum, UniProt A0ABN5UYD8).
T1 construct: gene BBBF_1623; residues 35-1111 of 1139 aa, signal peptide and C-terminal TM region removed, C-terminal His6 tag kept; E. coli; 171 kDa by SEC, dimer
Briefly: initial velocities, p-nitrophenolate release ([…] nm), Michaelis-Menten fit. The class given is biochemical. The conditions noted are these: 0.1-5.0 mM substrate; McIlvaine buffer, pH optimum 5.5 (pH and temperature of the kinetics not stated).

What is called stoichiometry N is the number of molecules, sites or subunits per partner or assembly. For orientation: Km means the concentration of substrate that gives half-maximal velocity.

T1 sequence (A0ABN5UYD8 entry or part of it): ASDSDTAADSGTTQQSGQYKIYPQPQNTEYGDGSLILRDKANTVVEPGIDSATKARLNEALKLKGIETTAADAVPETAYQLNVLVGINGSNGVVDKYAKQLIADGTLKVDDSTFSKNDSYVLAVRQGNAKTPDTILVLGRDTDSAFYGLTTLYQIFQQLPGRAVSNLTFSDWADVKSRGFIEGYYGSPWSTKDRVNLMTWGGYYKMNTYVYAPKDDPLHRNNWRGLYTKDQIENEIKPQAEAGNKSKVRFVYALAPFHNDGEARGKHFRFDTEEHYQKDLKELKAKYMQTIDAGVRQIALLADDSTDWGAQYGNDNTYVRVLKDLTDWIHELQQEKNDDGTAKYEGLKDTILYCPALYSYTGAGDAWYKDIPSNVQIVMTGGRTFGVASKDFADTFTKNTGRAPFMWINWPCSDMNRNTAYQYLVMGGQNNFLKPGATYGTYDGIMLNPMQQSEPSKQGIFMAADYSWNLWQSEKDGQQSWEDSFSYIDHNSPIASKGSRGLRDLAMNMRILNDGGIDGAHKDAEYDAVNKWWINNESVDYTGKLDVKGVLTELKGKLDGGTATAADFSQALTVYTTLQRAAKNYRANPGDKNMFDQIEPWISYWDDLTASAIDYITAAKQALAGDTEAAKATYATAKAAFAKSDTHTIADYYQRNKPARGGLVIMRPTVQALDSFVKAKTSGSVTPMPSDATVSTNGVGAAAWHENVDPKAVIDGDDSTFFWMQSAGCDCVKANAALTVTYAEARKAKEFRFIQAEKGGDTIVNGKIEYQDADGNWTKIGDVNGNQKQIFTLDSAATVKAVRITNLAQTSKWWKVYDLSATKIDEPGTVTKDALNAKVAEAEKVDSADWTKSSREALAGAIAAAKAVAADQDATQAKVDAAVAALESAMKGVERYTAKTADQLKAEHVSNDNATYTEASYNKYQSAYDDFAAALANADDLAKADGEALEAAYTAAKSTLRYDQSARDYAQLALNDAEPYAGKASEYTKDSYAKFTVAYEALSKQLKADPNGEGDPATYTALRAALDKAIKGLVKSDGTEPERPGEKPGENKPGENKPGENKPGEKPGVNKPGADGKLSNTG

For the compound “BbhV (GH84 β-N-acetylglucosaminidase of Bifidobacterium bifidum JCM 1254), residues 35-1111, C-terminal His6 (enzyme)”, the stoichiometry N in test [1] was 2.
In the case of `CC(=O)N[C@H]1[C@H](Oc2ccc([N+](=O)[O-])cc2)O[C@H](CO)[C@@H](O)[C@@H]1O` [GlcNAcβ-pNP], the Michaelis-Menten constant (Km) in test [2] turned out to be 1000 µM.

Values taken from article PMC10245121, “GH20 and GH84 β-N-acetylglucosaminidases with different linkage specificities underpin mucin O-glycan breakdown capability of Bifidobacterium bifidum” (The Journal of Biological Chemistry, 2023).
